This is an account of results in the supplement of paper PMC7877785.

± gives the uncertainty stated by the source.

A short description of the series: self-splicing fitness, log relative to wild type (ln ratio); higher = more splicing; Tetrahymena group I intron in knt gene, E. coli kanamycin selection, DiMSum; sequences stand for … in CUCUCU…GGAGGGAAAAGUUAUCAGGCAUGCACCUGGUAGCUAGUCUUUAAACCAAUAGAUUGCAUCGGUUUAAAAGGCAAGACCGUCAAAUUGCGGGAAAGGGGUCAACAGCCGUUCAGUACCAAGUCUCAGGGGAAACUUUGAGAUGGCCUUGCAAAGGGUAUGGUAAUAAGCUGACGGACAUGGUCCUAACCACGCAGCCAAGUCCUAAGUCAACAGAUCUUCUGUUGAUAUGGAUGCAGUUCACAGACUAAAUGUCGGUCGGGGAAGAUGUAUUCUUCUCAUAAGAUAUAGUCGGACCUCUCCUUAAUGGGAGCUAGCGGAUGAAGUGAUGCAACACUGGAGCCGCUGGGAACUAAUUUGUAUGCGAAAGUAUAUUGAUUAGUUUUGGAGUACUCGUGGUCG
In a few lines: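 Fitness was computed with DiMSum as the error-weighted combination of replicate fold changes, kanamycin versus none, each normalised to wild type. The library randomised all eight intron nucleotides of the P1ex region, with the intron placed in the knt kanamycin-resistance gene on pET-22b(+) in E. coli BL21(DE3). Six replicate transformations were grown overnight at 37°C or 30°C on LB agar with or without 25 μg/mL kanamycin, plus 100 μg/mL carbenicillin, 50 μM IPTG and 0.2% rhamnose. Pooled colonies were amplicon-sequenced on an Illumina HiSeq 2500.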

For AUUGAGCAAUAUUACGACUG, the “self-splicing fitness (ln)” value (37 °C) is -0.882 ± 0.25.

CGCCAGCAAUAUUACGACUG: the “self-splicing fitness (ln)” value (30 °C) was -0.729 ± 0.13 and the “self-splicing fitness (ln)” value (37 °C) came out at 0.335 ± 0.15. On the same counts, the results for UUACAGCAAUAUUACGCCAA are -1.35 ± 0.17 and -1.01 ± 0.17. Turning to CGUUAGCAAUAUUACGUGGG, the “self-splicing fitness (ln)” value runs as follows: (30 °C) -1.39 ± 0.12; (37 °C) -1.79 ± 0.16. Regarding CUCGAGCAAUAUUACGCAUU, the “self-splicing fitness (ln)” value (30 °C) was -3.59 ± 0.3.

With AGGGAGCAAUAUUACGUGUC, the “self-splicing fitness (ln)” value is -3.95 ± 0.47 (30 °C) and -2.69 ± 0.26 (37 °C). In the same order, the values of GAAAAGCAAUAUUACGUAAC are -2.11 ± 0.18 and -1.38 ± 0.17. On the same counts, the results for GAUUAGCAAUAUUACGGUUA are -0.842 ± 0.14 and 0.0704 ± 0.15. On the same counts, the results for AGAUAGCAAUAUUACGGCAU are -0.734 ± 0.11 and 0.242 ± 0.12.

GCGUAGCAAUAUUACGUUAA: the “self-splicing fitness (ln)” value reads like this: (30 °C) -2.13 ± 0.23; (37 °C) -1.74 ± 0.2. On the same counts, the results for GGUAAGCAAUAUUACGCUUC are -4.14 ± 0.42 and -1.58 ± 0.35. Consider AAUGAGCAAUAUUACGUCGC, for which the “self-splicing fitness (ln)” value (30 °C) is -3.95 ± 0.29 and the “self-splicing fitness (ln)” value (37 °C) was -2.79 ± 0.32. In the case of ACAGAGCAAUAUUACGGCAC, the “self-splicing fitness (ln)” value (37 °C) was -2.62 ± 0.44. For UCGCAGCAAUAUUACGGGGC, the “self-splicing fitness (ln)” value runs as follows: (30 °C) -2.52 ± 0.23; (37 °C) -2.63 ± 0.27. ACGAAGCAAUAUUACGCCUU: the “self-splicing fitness (ln)” value is -2.57 ± 0.14 (30 °C) and -0.89 ± 0.13 (37 °C).

As for UAUCAGCAAUAUUACGCGGG, the “self-splicing fitness (ln)” value (30 °C) was -0.936 ± 0.076 and the “self-splicing fitness (ln)” value (37 °C) is -1.14 ± 0.098. In the same order, the values of AAUGAGCAAUAUUACGUACA are -2.3 ± 0.36 and -3.21 ± 0.33. As to CAAGAGCAAUAUUACGGACU, where the note is “37 °C”, the “self-splicing fitness (ln)” value is -2.75 ± 0.28.

Consider CUGUAGCAAUAUUACGGAAC, for which the “self-splicing fitness (ln)” value (37 °C) is -2.87 ± 0.34. Turning to GUGAAGCAAUAUUACGCUUG, the “self-splicing fitness (ln)” value reads like this: (30 °C) -1.44 ± 0.11; (37 °C) -0.0927 ± 0.098. Take GCCUAGCAAUAUUACGUGAG: the “self-splicing fitness (ln)” value is -1.21 ± 0.085 (30 °C) and -0.757 ± 0.091 (37 °C). Take CAUCAGCAAUAUUACGGGUC: the “self-splicing fitness (ln)” value (30 °C) was -2.63 ± 0.11 and the “self-splicing fitness (ln)” value (37 °C) is -0.644 ± 0.1. Take ACCAAGCAAUAUUACGGGGG: the “self-splicing fitness (ln)” value was -2.15 ± 0.096 (30 °C) and -2.29 ± 0.14 (37 °C). As for UUUGAGCAAUAUUACGAACC, the “self-splicing fitness (ln)” value (30 °C) was -2.5 ± 0.35. For CACUAGCAAUAUUACGGAGA, where the note is “37 °C”, the “self-splicing fitness (ln)” value is -2.39 ± 0.22.

As to UGUAAGCAAUAUUACGGCGA, the “self-splicing fitness (ln)” value by setting is: (30 °C) -0.0897 ± 0.085; (37 °C) -0.0127 ± 0.11.

Consider AAUUAGCAAUAUUACGUGGA, for which the “self-splicing fitness (ln)” value reads like this: (30 °C) -3.12 ± 0.2; (37 °C) -2.27 ± 0.17.

Take CAUCAGCAAUAUUACGUUGU: the “self-splicing fitness (ln)” value (30 °C) is -3.52 ± 0.14 and the “self-splicing fitness (ln)” value (37 °C) is -2.92 ± 0.16. In the case of CAUCAGCAAUAUUACGGGUU, the “self-splicing fitness (ln)” value (30 °C) is -1.8 ± 0.067 and the “self-splicing fitness (ln)” value (37 °C) was -0.61 ± 0.08. Consider CGCGAGCAAUAUUACGUGGA, for which the “self-splicing fitness (ln)” value is -2.79 ± 0.16 (30 °C) and -3.01 ± 0.34 (37 °C). Regarding AGGGAGCAAUAUUACGGACC, the “self-splicing fitness (ln)” value is, setting by setting: (30 °C) -2.79 ± 0.36; (37 °C) -1.37 ± 0.36. For the sequence CACUAGCAAUAUUACGCUUC, the “self-splicing fitness (ln)” value is -3.74 ± 0.3 (30 °C) and -3.2 ± 0.4 (37 °C). On the same counts, the results for CGUCAGCAAUAUUACGCUAC are -3.74 ± 0.43 and -0.956 ± 0.23.

In the case of GGCUAGCAAUAUUACGCGGC, the “self-splicing fitness (ln)” value is, setting by setting: (30 °C) -3.55 ± 0.43; (37 °C) -2.19 ± 0.46. On the same counts, the results for AAUCAGCAAUAUUACGGAAU are -0.646 ± 0.065 and -0.35 ± 0.075. On the same counts, the results for UUUCAGCAAUAUUACGCUCA are -0.608 ± 0.17 and 0.404 ± 0.18. On to UUAUAGCAAUAUUACGGUCU, for which the “self-splicing fitness (ln)” value is -3.22 ± 0.25 (30 °C) and -1.28 ± 0.22 (37 °C). In the same order, the values of GUCAAGCAAUAUUACGUCCA are -2.58 ± 0.25 and -0.387 ± 0.12.

As for CCCAAGCAAUAUUACGAUGC, the “self-splicing fitness (ln)” value is, setting by setting: (30 °C) -4.67 ± 0.29; (37 °C) -2.15 ± 0.24.

Take CAGGAGCAAUAUUACGUUUU: the “self-splicing fitness (ln)” value is -3.95 ± 0.35 (30 °C) and -2.3 ± 0.23 (37 °C). UUGGAGCAAUAUUACGCCCG: where the note is “30 °C”, the “self-splicing fitness (ln)” value is -1.94 ± 0.45. As to CGAAAGCAAUAUUACGUGUG, the “self-splicing fitness (ln)” value by setting is: (30 °C) -0.273 ± 0.054; (37 °C) 0.27 ± 0.066.

For CUGUAGCAAUAUUACGAACA, the “self-splicing fitness (ln)” value (30 °C) was -2 ± 0.41. On to AUCAAGCAAUAUUACGUCCA, for which the “self-splicing fitness (ln)” value is, setting by setting: (30 °C) -1.23 ± 0.09; (37 °C) -0.319 ± 0.11. As to CAACAGCAAUAUUACGAUUG, the “self-splicing fitness (ln)” value is -2.22 ± 0.063 (30 °C) and -1.42 ± 0.073 (37 °C). On the same counts, the results for UUGAAGCAAUAUUACGGUAA are -0.968 ± 0.1 and -0.399 ± 0.12. On the same counts, the results for CUGCAGCAAUAUUACGAUGG are -1.7 ± 0.08 and -1.18 ± 0.1. In the same order, the values of GUGGAGCAAUAUUACGACCU are -1.22 ± 0.094 and -0.548 ± 0.11. For the sequence AAAAAGCAAUAUUACGAAGA, the “self-splicing fitness (ln)” value by setting is: (30 °C) -1.96 ± 0.14; (37 °C) -1.56 ± 0.15.

As for CGAGAGCAAUAUUACGUAGG, the “self-splicing fitness (ln)” value reads like this: (30 °C) -3.03 ± 0.15; (37 °C) -1.39 ± 0.15. On the same counts, the results for UGGAAGCAAUAUUACGAGCG are 0.103 ± 0.11 and 0.127 ± 0.15. UGCUAGCAAUAUUACGGACC: the “self-splicing fitness (ln)” value is 0.158 ± 0.22 (30 °C) and -1.06 ± 0.22 (37 °C).

In the case of AUAAAGCAAUAUUACGCCAG, the “self-splicing fitness (ln)” value reads like this: (30 °C) -0.993 ± 0.12; (37 °C) -0.785 ± 0.16. Regarding GGCAAGCAAUAUUACGCCCC, the “self-splicing fitness (ln)” value (37 °C) is -1.27 ± 0.35.

Regarding CAAAAGCAAUAUUACGCCAA, the “self-splicing fitness (ln)” value runs as follows: (30 °C) -3.4 ± 0.36; (37 °C) -2.1 ± 0.24.

Turning to CAUUAGCAAUAUUACGAGAG, the “self-splicing fitness (ln)” value is -2.5 ± 0.19 (30 °C) and -2.63 ± 0.21 (37 °C). In the case of CAUAAGCAAUAUUACGUACU, the “self-splicing fitness (ln)” value (37 °C) was -2 ± 0.32. Consider GCCGAGCAAUAUUACGGCAC, for which the “self-splicing fitness (ln)” value runs as follows: (30 °C) -2.24 ± 0.19; (37 °C) -1.71 ± 0.23. On the same counts, the results for GAAGAGCAAUAUUACGUCGU are -2.96 ± 0.21 and -2.24 ± 0.21.

With CCCGAGCAAUAUUACGUUCC, the “self-splicing fitness (ln)” value (30 °C) was -2.86 ± 0.4. Regarding UUUGAGCAAUAUUACGAACA, the “self-splicing fitness (ln)” value was -2.9 ± 0.23 (30 °C) and -2.15 ± 0.21 (37 °C). On the same counts, the results for AUUGAGCAAUAUUACGUGUC are -4.77 ± 0.26 and -2.53 ± 0.15. GUAAAGCAAUAUUACGUCGG: the “self-splicing fitness (ln)” value by setting is: (30 °C) -2.85 ± 0.12; (37 °C) -1.05 ± 0.13. With UUGUAGCAAUAUUACGCUCG, the “self-splicing fitness (ln)” value is -0.29 ± 0.14 (30 °C) and -0.456 ± 0.25 (37 °C).
